From patent publication US20090285824A1

Assays:
[1] = biological target: hu IGF-1R(ECD)-C3-muIgG1Fc (human; mouse); experiment: ORIGEN competition: antibody vs 1 nM Ru-IGF-1 on IGF-1R(ECD)-C3-muFc beads
[2] = biological target: hu IGF-1R(ECD)-C3-muIgG1Fc (human; mouse); experiment: ORIGEN competition: antibody vs 2 nM Ru-IGF-2 on IGF-1R(ECD)-C3-muFc beads

Substance	Ki [1]	Max (%), maximum level of inhibition at 1 µM antibody [1]	Ki [2]	Max (%), maximum level of inhibition at 1 µM antibody [2]
murine anti-IGF-1R antibody 1H7 (Santa Cruz Biotechnology)	0.016 µM	89%	0.0131 µM	99%
murine anti-IGF-1R antibody αIR3 (Calbiochem)	0.0053 µM	91%		
